Source: patent US20180311359A1 (TRACON PHARMACEUTICALS, published 2018)

Key:
[1] = target: T1, CD105 (endoglin) (UniProt P17813 26-586, limits assumed); assay: CD105 binding ELISA; F03 (pH 4.0, 20 mM acetate, 240 mM sorbitol, 25 mg/ml), 5 C, initial
T1 construct: Soluble protein captured on the plate
T1 sequence (looked up): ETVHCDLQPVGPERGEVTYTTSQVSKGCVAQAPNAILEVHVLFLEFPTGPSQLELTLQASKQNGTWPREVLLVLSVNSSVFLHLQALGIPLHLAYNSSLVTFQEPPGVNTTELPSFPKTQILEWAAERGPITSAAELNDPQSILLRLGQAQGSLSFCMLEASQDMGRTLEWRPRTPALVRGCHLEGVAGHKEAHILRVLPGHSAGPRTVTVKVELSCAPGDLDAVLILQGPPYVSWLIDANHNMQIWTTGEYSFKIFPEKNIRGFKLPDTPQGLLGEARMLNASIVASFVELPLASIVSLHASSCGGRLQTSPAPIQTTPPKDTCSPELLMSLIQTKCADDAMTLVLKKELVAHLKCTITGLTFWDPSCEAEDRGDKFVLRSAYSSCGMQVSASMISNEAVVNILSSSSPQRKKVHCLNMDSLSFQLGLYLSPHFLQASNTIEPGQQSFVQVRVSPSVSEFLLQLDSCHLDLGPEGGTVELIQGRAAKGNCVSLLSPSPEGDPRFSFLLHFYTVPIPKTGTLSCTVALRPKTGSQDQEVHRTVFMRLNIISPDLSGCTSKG

[2] = target: T1, CD105 (endoglin); assay: CD105 binding ELISA; F05 (pH 4.0, 20 mM acetate, 240 mM trehalose, 50 mg/ml), 5 C, initial
[3] = target: T1, CD105 (endoglin); assay: CD105 binding ELISA; F02 (pH 5.5, 20 mM histidine, 240 mM sorbitol, 25 mg/ml), 5 C, initial
[4] = target: T1, CD105 (endoglin); assay: CD105 binding ELISA; F03 (pH 4.0, 20 mM acetate, 240 mM sorbitol, 25 mg/ml), 5 C, 12 months
[5] = target: T1, CD105 (endoglin); assay: CD105 binding ELISA; F07 (pH 4.0, 20 mM acetate, 240 mM trehalose, 100 mg/ml), 5 C, initial
[6] = target: T1, CD105 (endoglin); assay: CD105 binding ELISA; F01 (pH 5.5, 20 mM histidine, 240 mM trehalose, 25 mg/ml), 5 C, initial
[7] = target: T1, CD105 (endoglin); assay: CD105 binding ELISA; F02 (pH 5.5, 20 mM histidine, 240 mM sorbitol, 25 mg/ml), 5 C, 6 months
[8] = target: T1, CD105 (endoglin); assay: CD105 binding ELISA; F04 (pH 5.5, 20 mM histidine, 240 mM trehalose, 50 mg/ml), 5 C, initial
[9] = target: T1, CD105 (endoglin); assay: CD105 binding ELISA; F05 (pH 4.0, 20 mM acetate, 240 mM trehalose, 50 mg/ml), 5 C, 12 months
[10] = target: T1, CD105 (endoglin); assay: CD105 binding ELISA; F01 (pH 5.5, 20 mM histidine, 240 mM trehalose, 25 mg/ml), 5 C, 6 months
[11] = target: T1, CD105 (endoglin); assay: CD105 binding ELISA; F02 (pH 5.5, 20 mM histidine, 240 mM sorbitol, 25 mg/ml), 5 C, 12 months
[12] = target: T1, CD105 (endoglin); assay: CD105 binding ELISA; F04 (pH 5.5, 20 mM histidine, 240 mM trehalose, 50 mg/ml), 5 C, 6 months
[13] = target: T1, CD105 (endoglin); assay: CD105 binding ELISA; F06 (pH 5.5, 20 mM histidine, 240 mM trehalose, 100 mg/ml), 5 C, initial
[14] = target: T1, CD105 (endoglin); assay: CD105 binding ELISA; F07 (pH 4.0, 20 mM acetate, 240 mM trehalose, 100 mg/ml), 5 C, 12 months
[15] = target: T1, CD105 (endoglin); assay: CD105 binding ELISA; F01 (pH 5.5, 20 mM histidine, 240 mM trehalose, 25 mg/ml), 5 C, 12 months
[16] = target: T1, CD105 (endoglin); assay: CD105 binding ELISA; F04 (pH 5.5, 20 mM histidine, 240 mM trehalose, 50 mg/ml), 5 C, 12 months
[17] = target: T1, CD105 (endoglin); assay: CD105 binding ELISA; F06 (pH 5.5, 20 mM histidine, 240 mM trehalose, 100 mg/ml), 5 C, 6 months
[18] = target: T1, CD105 (endoglin); assay: CD105 binding ELISA; F06 (pH 5.5, 20 mM histidine, 240 mM trehalose, 100 mg/ml), 5 C, 12 months
[19] = target: T1, CD105 (endoglin); assay: CD105 binding ELISA; TRC105 4 mg/mL in 17 mM phosphate, 145 mM NaCl, pH 7.2 (Lot FIN-0536), 2-8 C, initial
[20] = target: T1, CD105 (endoglin); assay: CD105 binding ELISA; TRC105 4 mg/mL in 17 mM phosphate, 145 mM NaCl, pH 7.2 (Lot FIN-0536), 2-8 C, 6 months
[21] = target: T1, CD105 (endoglin); assay: CD105 binding ELISA; TRC105 4 mg/mL in 17 mM phosphate, 145 mM NaCl, pH 7.2 (Lot FIN-0536), 2-8 C, 9 months
[22] = target: T1, CD105 (endoglin); assay: CD105 binding ELISA; TRC105 4 mg/mL in 17 mM phosphate, 145 mM NaCl, pH 7.2 (Lot FIN-0536), 2-8 C, 12 months
[23] = target: T1, CD105 (endoglin); assay: CD105 binding ELISA; TRC105 4 mg/mL in 17 mM phosphate, 145 mM NaCl, pH 7.2 (Lot FIN-0536), 2-8 C, 18 months
[24] = target: T1, CD105 (endoglin); assay: CD105 binding ELISA; TRC105 4 mg/mL in 17 mM phosphate, 145 mM NaCl, pH 7.2 (Lot FIN-0536), 2-8 C, 24 months
[25] = target: T1, CD105 (endoglin); assay: CD105 binding ELISA; TRC105 4 mg/mL in 17 mM phosphate, 145 mM NaCl, pH 7.2 (Lot FIN-0536), 2-8 C, 30 months
[26] = target: T1, CD105 (endoglin); assay: CD105 binding ELISA; TRC105 4 mg/mL in 17 mM phosphate, 145 mM NaCl, pH 7.2 (Lot FIN-0536), 2-8 C, 36 months
[27] = target: T1, CD105 (endoglin); assay: CD105 binding ELISA; TRC105 4 mg/mL in 17 mM phosphate, 145 mM NaCl, pH 7.2 (Lot FIN-0536), 25 C/60% RH, 1 month
[28] = target: T1, CD105 (endoglin); assay: CD105 binding ELISA; TRC105 4 mg/mL in 17 mM phosphate, 145 mM NaCl, pH 7.2 (Lot FIN-0536), 25 C/60% RH study, initial (same initial value as in Table 18)

B1: TRC105 (an anti-CD105 antibody) (antibody, human IgG1, kappa, V domains shown)
VH: EVKLEESGGGLVQPGGSMKLSCAASGFTFSDAWMDWVRQSPEKGLEWVAEIRSKASNHATYYAESVKGRFTISRDDSKSSVYLQMNSLRAEDTGIYYCTRWRRFFDSWGQGTTLTVSS
VL: QIVLSQSPAILSASPGEKVTMTCRASSSVSYMHWYQQKPGSSPKPWIYATSNLASGVPVRFSGSGSGTSYSLTISRVEAEDAATYYCQQWSSNPLTFGAGTKLELKR
notes: each chain is built here as variable plus constant region; The same antibody was tested in different formulations and after different storage times; also called Lot FIN-0536
- Percent Relative CD105 Binding Potency [1]: 124 % relative to reference standard
- Percent Relative CD105 Binding Potency [2]: 179 % relative to reference standard
- Percent Relative CD105 Binding Potency [3]: 90 % relative to reference standard
- Percent Relative CD105 Binding Potency [4]: 77 % relative to reference standard
- Percent Relative CD105 Binding Potency [5]: 100 % relative to reference standard
- Percent Relative CD105 Binding Potency [6]: 101 % relative to reference standard
- Percent Relative CD105 Binding Potency [7]: 90 % relative to reference standard
- Percent Relative CD105 Binding Potency [8]: 123 % relative to reference standard
- Percent Relative CD105 Binding Potency [9]: 96 % relative to reference standard
- Percent Relative CD105 Binding Potency [10]: 94 % relative to reference standard
- Percent Relative CD105 Binding Potency [11]: 69 % relative to reference standard
- Percent Relative CD105 Binding Potency [12]: 97 % relative to reference standard
- Percent Relative CD105 Binding Potency [13]: 93 % relative to reference standard
- Percent Relative CD105 Binding Potency [14]: 86 % relative to reference standard
- Percent Relative CD105 Binding Potency [15]: 68 % relative to reference standard
- Percent Relative CD105 Binding Potency [16]: 74 % relative to reference standard
- Percent Relative CD105 Binding Potency [17]: 95 % relative to reference standard
- Percent Relative CD105 Binding Potency [18]: 115 % relative to reference standard
- CD105 Binding by ELISA (binding activity relative to reference standard) [19]: 88 % relative to reference standard
- CD105 Binding by ELISA (binding activity relative to reference standard) [20]: 110 % relative to reference standard
- CD105 Binding by ELISA (binding activity relative to reference standard) [21]: 104 % relative to reference standard
- CD105 Binding by ELISA (binding activity relative to reference standard) [22]: 91 % relative to reference standard
- CD105 Binding by ELISA (binding activity relative to reference standard) [23]: 88 % relative to reference standard
- CD105 Binding by ELISA (binding activity relative to reference standard) [24]: 136 % relative to reference standard
- CD105 Binding by ELISA (binding activity relative to reference standard) [25]: 88 % relative to reference standard
- CD105 Binding by ELISA (binding activity relative to reference standard) [26]: 105 % relative to reference standard
- CD105 Binding by ELISA (binding activity relative to reference standard) [27]: 91 % relative to reference standard
- CD105 Binding by ELISA (binding activity relative to reference standard) [28]: 88 % relative to reference standard
